Results reported in doi:10.1101/2022.06.21.497044 (bioRxiv, 2022).

Columns and labels:
BBX30 (miP1b) = target: T1, BBX30 (miP1b) (Arabidopsis thaliana, UniProt Q1G3I2 1-117); test: EMSA
T1 sequence: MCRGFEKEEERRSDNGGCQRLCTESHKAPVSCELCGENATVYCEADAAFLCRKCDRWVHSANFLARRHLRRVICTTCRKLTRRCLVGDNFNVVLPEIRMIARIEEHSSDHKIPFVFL

BBX31 (miP1a) = target: T2, BBX31 (miP1a) (Arabidopsis thaliana, UniProt Q9LRM4 1-121); test: EMSA
T2 sequence: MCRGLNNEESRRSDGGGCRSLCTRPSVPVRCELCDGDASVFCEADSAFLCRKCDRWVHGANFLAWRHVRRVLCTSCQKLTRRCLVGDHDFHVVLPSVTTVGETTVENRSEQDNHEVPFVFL

GST-ABI5 [1] = target: T3, GST-ABI5 (Arabidopsis thaliana, UniProt Q9SJN0 1-442); test: EMSA
T3 sequence: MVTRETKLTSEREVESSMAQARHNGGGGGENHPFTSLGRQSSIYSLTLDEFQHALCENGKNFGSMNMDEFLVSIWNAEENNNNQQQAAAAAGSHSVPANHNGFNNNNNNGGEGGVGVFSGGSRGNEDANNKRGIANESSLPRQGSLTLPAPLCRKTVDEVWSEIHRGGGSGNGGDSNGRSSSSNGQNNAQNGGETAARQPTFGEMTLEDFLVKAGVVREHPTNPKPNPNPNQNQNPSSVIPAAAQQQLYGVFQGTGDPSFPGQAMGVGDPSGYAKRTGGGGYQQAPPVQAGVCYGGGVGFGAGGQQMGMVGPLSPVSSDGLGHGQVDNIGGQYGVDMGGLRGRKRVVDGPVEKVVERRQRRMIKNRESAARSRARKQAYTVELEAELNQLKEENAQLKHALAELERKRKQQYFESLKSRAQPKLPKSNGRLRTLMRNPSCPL

GST-ABI5 [2] = target: T4, GST-ABI5 (Arabidopsis thaliana, UniProt Q9SJN0 1-442); test: pull-down
T4 sequence: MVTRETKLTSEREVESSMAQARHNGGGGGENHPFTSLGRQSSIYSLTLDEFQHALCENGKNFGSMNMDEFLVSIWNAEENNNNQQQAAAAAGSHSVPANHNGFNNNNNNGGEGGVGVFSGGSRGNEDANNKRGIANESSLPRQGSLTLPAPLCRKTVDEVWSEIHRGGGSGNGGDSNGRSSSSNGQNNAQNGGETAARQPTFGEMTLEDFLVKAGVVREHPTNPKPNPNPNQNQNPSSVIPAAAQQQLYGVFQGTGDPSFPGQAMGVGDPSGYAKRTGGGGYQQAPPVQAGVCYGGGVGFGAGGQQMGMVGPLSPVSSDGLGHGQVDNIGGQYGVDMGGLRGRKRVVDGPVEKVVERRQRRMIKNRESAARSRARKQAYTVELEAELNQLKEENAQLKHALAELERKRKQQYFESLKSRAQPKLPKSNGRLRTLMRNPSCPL

B1: EM6 promoter probe (dsDNA)
DNA 1: AATAAAGTCAGACACGTGGCATGTCACCAA
DNA 2: TTGGTGACATGCCACGTGTCTGACTTTATT
binding result (BBX30 (miP1b)): no binding
binding result (BBX31 (miP1a)): no binding

B2: BBX30 promoter probe (dsDNA)
DNA 1: GTCAATATTTTTCCACGTGTACAACCAGTTTA
DNA 2: TAAACTGGTTGTACACGTGGAAAAATATTGAC
binding result (GST-ABI5 [1]): binds

B3: mutBBX30 probe (dsDNA)
DNA 1: GTCAATATTTTTCCAAAAATACAACCAGTTTA
DNA 2: TAAACTGGTTGTATTTTTGGAAAAATATTGAC
binding result (GST-ABI5 [1]): no binding

B4: BBX31 promoter probe (dsDNA)
DNA 1: AAATAACAGGGCAAGATTCATCCACGTGTCCAACAACAACACAACACAAA
DNA 2: TTTGTGTTGTGTTGTTGTTGGACACGTGGATGAATCTTGCCCTGTTATTT
binding result (GST-ABI5 [1]): binds

B5: mutBBX31 probe (dsDNA)
DNA 1: AAATAACAGGGCAAGATTCATCACCGGGTCCAACAACAACACAACACAAA
DNA 2: TTTGTGTTGTGTTGTTGTTGGACCCGGTGATGAATCTTGCCCTGTTATTT
binding result (GST-ABI5 [1]): no binding

B6: ABI5 promoter probe (dsDNA)
DNA 1: GCAAGAAACAGAAGAGAGACACGTGCAGGACACGTGTCGTCCGCAGCCGAACGGA
DNA 2: TCCGTTCGGCTGCGGACGACACGTGTCCTGCACGTGTCTCTCTTCTGTTTCTTGC
binding result (BBX30 (miP1b)): no binding
binding result (BBX31 (miP1a)): no binding

B7: His-BBX31 (natural protein)
chain: MCRGLNNEESRRSDGGGCRSLCTRPSVPVRCELCDGDASVFCEADSAFLCRKCDRWVHGANFLAWRHVRRVLCTSCQKLTRRCLVGDHDFHVVLPSVTTVGETTVENRSEQDNHEVPFVFL
binding result (GST-ABI5 [2]): binds

B8: His-BBX30 (natural protein)
chain: MCRGFEKEEERRSDNGGCQRLCTESHKAPVSCELCGENATVYCEADAAFLCRKCDRWVHSANFLARRHLRRVICTTCRKLTRRCLVGDNFNVVLPEIRMIARIEEHSSDHKIPFVFL
binding result (GST-ABI5 [2]): binds
